Results taken from the supplement of paper PMC10567573.

B1: FUT8 (parent)
chain: YPSYKVREKIETVKYPTYPEAEK

Variants of: B1
Assay: protein stability index of a GFP-peptide fusion (GPS, HEK-293T) (PSI 1-6); higher = more stable
Conditions: c terminus: native
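Note: lentivirally expressed fusions sorted by FACS into six bins by GFP to DsRed ratio, PSI derived from sequencing read proportions per bin multiplied by bin number.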

| Variant | protein stability index |
| --- | --- |
| YPLYKVREKIETVKYPTYPEAEK [S3L] | 4.7 |
| YPNYKVREKIETVKYPTYPEAEK [S3N] | 4.3 |
| YPTYKVREKIETVKYPTYPEAEK [S3T] | 4.19 |
| YPWYKVREKIETVKYPTYPEAEK [S3W] | 3.02 |
| YPGYKVREKIETVKYPTYPEAEK [S3G] | 3.92 |
| YPFYKVREKIETVKYPTYPEAEK [S3F] | 3.25 |
| YPEYKVREKIETVKYPTYPEAEK [S3E] | 4.18 |
| YPKYKVREKIETVKYPTYPEAEK [S3K] | 4.78 |
| YPIYKVREKIETVKYPTYPEAEK [S3I] | 4.44 |
| YPPYKVREKIETVKYPTYPEAEK [S3P] | 3.35 |
| YPDYKVREKIETVKYPTYPEAEK [S3D] | 4.69 |
| YPMYKVREKIETVKYPTYPEAEK [S3M] | 4.08 |
| YPYYKVREKIETVKYPTYPEAEK [S3Y] | 4.12 |
| MPSYKVREKIETVKYPTYPEAEK [Y1M] | 4.7 |
| GPSYKVREKIETVKYPTYPEAEK [Y1G] | 5.08 |
| FPSYKVREKIETVKYPTYPEAEK [Y1F] | 4.75 |
| LPSYKVREKIETVKYPTYPEAEK [Y1L] | 5.16 |
| IPSYKVREKIETVKYPTYPEAEK [Y1I] | 5.15 |
| NPSYKVREKIETVKYPTYPEAEK [Y1N] | 5.08 |
| RPSYKVREKIETVKYPTYPEAEK [Y1R] | 4.58 |
| PPSYKVREKIETVKYPTYPEAEK [Y1P] | 5.38 |
| EPSYKVREKIETVKYPTYPEAEK [Y1E] | 4.99 |
| VPSYKVREKIETVKYPTYPEAEK [Y1V] | 4.97 |
| SPSYKVREKIETVKYPTYPEAEK [Y1S] | 4.96 |
| HPSYKVREKIETVKYPTYPEAEK [Y1H] | 4.98 |

| Variant | protein stability index |
| --- | --- |
| WPSYKVREKIETVKYPTYPEAEK [Y1W] | 4.46 |
| QPSYKVREKIETVKYPTYPEAEK [Y1Q] | 4.96 |
| APSYKVREKIETVKYPTYPEAEK [Y1A] | 5.42 |
| CPSYKVREKIETVKYPTYPEAEK [Y1C] | 4.41 |
| DPSYKVREKIETVKYPTYPEAEK [Y1D] | 5.3 |
| TPSYKVREKIETVKYPTYPEAEK [Y1T] | 4.92 |
| YPSYKRREKIETVKYPTYPEAEK [V6R] | 4.36 |
| YPSYKSREKIETVKYPTYPEAEK [V6S] | 4.48 |
| YPSYKCREKIETVKYPTYPEAEK [V6C] | 3.91 |
| YPSYKAREKIETVKYPTYPEAEK [V6A] | 4.67 |
| YPSYKLREKIETVKYPTYPEAEK [V6L] | 4.69 |
| YPSYKHREKIETVKYPTYPEAEK [V6H] | 4.58 |
| YPSYKPREKIETVKYPTYPEAEK [V6P] | 4.62 |
| YPSYKGREKIETVKYPTYPEAEK [V6G] | 4.18 |
| YPSYKKREKIETVKYPTYPEAEK [V6K] | 4.55 |
| YPSYKNREKIETVKYPTYPEAEK [V6N] | 4.62 |
| YPSYKEREKIETVKYPTYPEAEK [V6E] | 4.43 |
| YPSYKIREKIETVKYPTYPEAEK [V6I] | 3.89 |
| YPSYKFREKIETVKYPTYPEAEK [V6F] | 2.83 |
| YPSYKDREKIETVKYPTYPEAEK [V6D] | 4.76 |
| YPSYKMREKIETVKYPTYPEAEK [V6M] | 3.86 |
| YPSYKYREKIETVKYPTYPEAEK [V6Y] | 4.15 |
| YPSYKTREKIETVKYPTYPEAEK [V6T] | 4.25 |
| YPSYKQREKIETVKYPTYPEAEK [V6Q] | 4.13 |
